Results from patent publication US7439017B2, “Assays for measuring nucleic acid binding proteins and enzyme activities” (BioVeris Corporation, priority 1998, dated 2008).

System: RuBpy-labeled Sheep anti-mouse IgG coated beads
Test: ECL-based assay for the measurement of protease activity
Assay type: biochemical
Conditions: in words, 30 minutes at 37° C., solution phase, FIG. 9
Protocol: This assay system consists of a ruthenylated (RuBpy-labeled) substrate immobilized on paramagnetic beads and the enzyme of interest. The RuBpy label is released by the action of the enzyme. The ECL of the free label is measured using the ORIGEN Analyzer (IGEN International).
Dynabead® M280 Sheep anti-mouse IgG coated beads (IGEN International, Inc.) were RuBpy-labeled at a 200:1 challenge ratio of RuBpy to IgG to introduce RuBpy groups on the immobilized IgG molecules. The labeling was carried out using a derivative of RuBpy linked to an NHS ester (TAG-NHS, IGEN International) according to established procedures. The beads were then washed three times, thirty minutes each, at 4° C. with equal volumes of PBS, pH 7.8, and once overnight at 4° C. Replicate test samples were prepared with 100 μl of solutions containing known amounts of Proteinase K (Sigma) in phosphate buffered saline, pH 7.8 and 25 μl of 1.2 mg/ml TAG labeled Sheep anti-mouse beads. […] The reaction was quenched by the addition of 1 mL of a solution containing tripropylamine (ORIGEN Assay Buffer, IGEN International, Inc.) and the protease activity was quantitated on the ORIGEN 1.5 Analyzer with the solution phase default settings (i.e., the beads are kept in suspension so as to preferentially measure ECL at the electrode from RuBpy groups in solution) except for high vortex speed.

B1: Proteinase K: Proteinase K (Sigma), protease measured in the ECL assay (protein, UniProt P06873 106-384, looked up)
Proteinase K: AAQTNAPWGLARISSTSPGTSTYYYDESAGQGSCVYVIDTGIEASHPEFEGRAQMVKTYYYSSRDGNGHGTHCAGTVGSRTYGVAKKTQLFGVKVLDDNGSGQYSTIIAGMDFVASDKNNRNCPKGVVASLSLGGGYSSSVNSAAARLQSSGVMVAVAAGNNNADARNYSPASEPSVCTVGASDRYDRRSSFSNYGSVLDIFGPGTSILSTWIGGSTRSISGTSMATPHVAGLAAYLMTLGKTTAASACRYIADTANKGDLSNIPFGTVNLLAYNNYQA
- ECL signal as a function of the concentration of enzyme: directly related to the concentration of enzyme
